Here are results for seven molecules from patent publication US20150239991A1 (GLENMARK PHARMACEUTICALS S A, published 2015).

The target in test [1] is T1, human FcRn (human, UniProt P55899 24-297; P61769 21-119).
T1 construct: range 24-297;range 21-119; Alpha chain non-covalently associated with beta2-microglobulin; used as analyte at pH 6.0; also called human neonatal Fc receptor; soluble form of the extracellular region of the human FcRn
As to the kind of experiment: SPR on human FcRn at pH 6.0, steady state KD expressed as ratio to the unmodified IGHG1 control.
Description: (§1) Growth medium was PowerCHO2 (Lonza Ltd, Basel, Switzerland). Prior purification, post-production supernatants were conditioned with 0.2M NaH₂PO₄, 0.1M NaCl pH6.0 in order to adjust pH to 6.0. FcRn was purified using human IgG sepharose6 Fast flow (GE Healthcare Europe GmbH, Glattbrugg, Switzerland) and eluted with PBS pH7.4. Measurements were recorded on a BIAcore™ 2000 instrument (GE Healthcare Europe GmbH, Glattbrugg, Switzerland). Each Immunoglobulin variant was immobilized on a CM5 sensor chip (GE Healthcare Europe GmbH, Glattbrugg, Switzerland) via amine coupling using a standard protocol provided by the manufacturer to reach an approximate response of 1500 RUs. […] After 3 min of dissociation, PBS pH7.4 was injected for 1 min at 30 μl/min for surface regeneration. KD values were determined using a steady state affinity model. Equilibrium constants were determined by fitting the steady-state response versus the concentration of human FcRn over a range of concentrations to a 1:1 binding model (stoichiometry (n)=1). Measurements were performed in triplicate, and included zero-concentration samples for referencing. Both Chi2 and residual values were used to evaluate the quality of a fit between the experimental data and individual binding models.
To fit this purpose, each homo-dimeric immunoglobulin was directly coupled onto a CM5 sensor chip. A soluble form of the extracellular region of the human FcRn consisting of its alpha chain non-covalently associated with beta2-microglobulin protein was prepared and used as analyte.

Test [2] addresses T1, human FcRn. As to the kind of experiment: SPR (BIAcore 2000): immunoglobulin amine-coupled to a CM5 chip, human FcRn injected as analyte at pH 6.0, steady state affinity model.
Description: as §1
To fit this purpose, each homo-dimeric immunoglobulin was directly coupled onto a CM5 sensor chip. […]
Another test has as its target T2, MabSelect™ Protein A (Staphylococcus aureus, UniProt P38507 37-327).
T2 construct: also called HiTrap™ MabSelect™ Protein A column; MabSelect™ resin
As to the kind of experiment: Protein A gradient mode chromatography (HiTrap MabSelect column), A280 trace against pH gradient.

For test [3], the target named is T3, Protein G (group C and G Streptococci, UniProt P19909 303-427).
T3 construct: Two commercial resins used (Sepharose 4 Fast Flow for capture-elution, HiTrap HP for gradient); also called Protein G Sepharose™ 4 Fast Flow resin; HiTrap™ Protein G HP column
As to the kind of experiment: Protein G gradient mode chromatography (HiTrap Protein G HP column), A280 trace against pH gradient.

Test [4] deals with T3, Protein G. The test is described as above. The source holds these as a separate data set.
For test [5], the target named is T3, Protein G. The test is described as above. This is another data set of the same source.

Read-outs that look alike come from different tables or passages of the source.

T1 sequence (P55899 24-297 limits assumed, form in doubt, chain 1 of 2): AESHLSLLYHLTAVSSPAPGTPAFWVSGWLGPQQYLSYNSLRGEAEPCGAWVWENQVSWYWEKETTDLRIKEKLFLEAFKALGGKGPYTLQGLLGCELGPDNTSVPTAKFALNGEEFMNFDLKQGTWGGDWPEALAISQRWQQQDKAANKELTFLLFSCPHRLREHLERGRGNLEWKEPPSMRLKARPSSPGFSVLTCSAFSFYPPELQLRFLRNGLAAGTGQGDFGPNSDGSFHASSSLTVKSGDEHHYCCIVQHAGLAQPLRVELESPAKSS
T1 sequence (P61769 21-119 limits assumed, form in doubt, chain 2 of 2): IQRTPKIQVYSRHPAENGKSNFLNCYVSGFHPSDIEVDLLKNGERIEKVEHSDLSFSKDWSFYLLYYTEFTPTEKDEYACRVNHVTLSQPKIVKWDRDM

B1: Anti-hCD19 FAB-Fc S426M/M428G/H433D/N434A (antibody, human IgG1, kappa)
heavy chain: QVQLVQSGGGVVQPGRSLRLSCAASGVSLPDYGVSWVRQAPGKGLEWVAVIWGSETTYYNSALKSRFTISRDNSKNTLYLQMNSLRAEDTAVYYCAKHYYYGGSYAMDYWGQGTLVTVSSASTKGPSVFPLAPSSKSTSGGTAALGCLVKDYFPEPVTVSWNSGALTSGVHTFPAVLQSSGLYSLSSVVTVPSSSLGTQTYICNVNHKPSNTKVDKKVEPKSCDKTHTCPPCPAPELLGGPSVFLFPPKPKDTLMISRTPEVTCVVVDVSHEDPEVKFNWYVDGVEVHNAKTKPREEQYNSTYRVVSVLTVLHQDWLNGKEYKCKVSNKALPAPIEKTISKAKGQPREPQVYTLPPSRDELTKNQVSLTCLVKGFYPSDIAVEWESNGQPENNYKTTPPVLDSDGSFFLYSKLTVDKSRWQQGNVFSCMVGHEALDAHYTQKSLSLSPGK
light chain: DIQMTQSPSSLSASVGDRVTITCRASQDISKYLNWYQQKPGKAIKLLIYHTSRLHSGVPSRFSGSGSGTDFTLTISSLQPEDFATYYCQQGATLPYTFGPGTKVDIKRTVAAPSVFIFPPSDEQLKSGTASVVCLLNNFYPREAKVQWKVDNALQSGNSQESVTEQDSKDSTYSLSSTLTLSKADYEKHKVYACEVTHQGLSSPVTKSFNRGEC
As to B1, the “KD ratio (IGHG1/mutant)” value in the test with human FcRn [1] was found to be 0.48.

B2: anti-hCD19 FAB-Fc 113 (antibody, human IgG1, kappa)
heavy: QVQLVQSGGGVVQPGRSLRLSCAASGVSLPDYGVSWVRQAPGKGLEWVAVIWGSETTYYNSALKSRFTISRDNSKNTLYLQMNSLRAEDTAVYYCAKHYYYGGSYAMDYWGQGTLVTVSSASTKGPSVFPLAPSSKSTSGGTAALGCLVKDYFPEPVTVSWNSGALTSGVHTFPAVLQSSGLYSLSSVVTVPSSSLGTQTYICNVNHKPSNTKVDKKVEPKSCDKTHTCPPCPAPELLGGPSVFLFPPKPKDTLMISRTPEVTCVVVDVSHEDPEVKFNWYVDGVEVHNAKTKPREEQYNSTYRVVSVLTVLHQDWLNGKEYKCKVSNKALPAPIEKTISKAKGQPREPQVYTLPPSREEMTKNQVSLTCLVKGFYPSDIAVEWESSGQPENNYNTTPPMLDSDGSFFLYSKLTVDKSRWQQGNIFSCSVMHEALHNRFTQKSLSLSPGK
light: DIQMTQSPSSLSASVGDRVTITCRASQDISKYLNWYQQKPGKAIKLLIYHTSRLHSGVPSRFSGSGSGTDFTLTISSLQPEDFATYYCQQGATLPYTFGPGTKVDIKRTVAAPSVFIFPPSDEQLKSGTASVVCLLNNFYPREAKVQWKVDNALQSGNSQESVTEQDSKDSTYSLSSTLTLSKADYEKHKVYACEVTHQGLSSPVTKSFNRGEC
notes: copies: 2 + 2
With B2, in the test with human FcRn [1], the “KD ratio (IGHG1/mutant)” value came out at 0.76.

B3: anti-hCD19 FAB-Fc 133 (antibody, human IgG1, kappa)
heavy: QVQLVQSGGGVVQPGRSLRLSCAASGVSLPDYGVSWVRQAPGKGLEWVAVIWGSETTYYNSALKSRFTISRDNSKNTLYLQMNSLRAEDTAVYYCAKHYYYGGSYAMDYWGQGTLVTVSSASTKGPSVFPLAPSSKSTSGGTAALGCLVKDYFPEPVTVSWNSGALTSGVHTFPAVLQSSGLYSLSSVVTVPSSSLGTQTYICNVNHKPSNTKVDKKVEPKSCDKTHTCPPCPAPELLGGPSVFLFPPKPKDTLMISRTPEVTCVVVDVSHEDPEVQFKWYVDGVEVHNAKTKPREEQYNSTFRVVSVLTVLHQDWLNGKEYKCKVSNKALPAPIEKTISKTKGQPREPQVYTLPPSREEMTKNQVSLTCLVKGFYPSDIAVEWESSGQPENNYNTTPPMLDSDGSFFLYSKLTVDKSRWQQGNIFSCSVMHEALHNRFTQKSLSLSPGK
light: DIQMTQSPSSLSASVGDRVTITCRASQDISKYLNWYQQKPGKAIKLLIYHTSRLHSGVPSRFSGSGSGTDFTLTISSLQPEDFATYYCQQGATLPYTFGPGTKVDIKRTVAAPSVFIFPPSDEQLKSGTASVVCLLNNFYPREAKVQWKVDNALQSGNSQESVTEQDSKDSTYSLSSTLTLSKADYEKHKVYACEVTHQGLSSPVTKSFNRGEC
notes: copies: 2 + 2
Take B3: in the test with human FcRn [1], the “KD ratio (IGHG1/mutant)” value turned out to be 0.73. Also, the equilibrium dissociation constant (Kd) in the test with human FcRn [2] stood at 2.68 µM.

B4: Anti-HER2 FAB R19G/T57A/Y59A (Fab)
heavy chain: EVQLVESGGGLVQPGGSLGLSCAASGFNIKDTYIHWVRQAPGKGLEWVARIYPTNGYARAADSVKGRFTISADTSKNTAYLQMNSLRAEDTAVYYCSRWGGDGFYAMDYWGQGTLVTVSSASTKGPSVFPLAPSSKSTSGGTAALGCLVKDYFPEPVTVSWNSGALTSGVHTFPAVLQSSGLYSLSSVVTVPSSSLGTQTYICNVNHKPSNTKVDKKVEPKSC
light chain: not shown
notes: also called combination R19G/T57A/Y59A
For B4, the binding result with MabSelect™ Protein A was “no binding”.

B5: Fc M252A/E380A/E382A/Y436A/Q438A (other)
chain: DKTHTCPPCPAPELLGGPSVFLFPPKPKDTLAISRTPEVTCVVVDVSHEDPEVKFNWYVDGVEVHNAKTKPREEQYNSTYRVVSVLTVLHQDWLNGKEYKCKVSNKALPAPIEKTISKAKGQPREPQVYTLPPSRDELTKNQVSLTCLVKGFYPSDIAVAWASNGQPENNYKTTPPVLDSDGSFFLYSKLTVDKSRWQQGNVFSCSVMHEALHNHATAKSLSLSPGK
notes: Homo-dimeric human IGHG1 Fc variant, EU numbering
Take B5: the binding result with Protein G [3] is “no binding”.

B6: Fc S254M/E380M/E382L/S426M/M428G (other)
chain: DKTHTCPPCPAPELLGGPSVFLFPPKPKDTLMIMRTPEVTCVVVDVSHEDPEVKFNWYVDGVEVHNAKTKPREEQYNSTYRVVSVLTVLHQDWLNGKEYKCKVSNKALPAPIEKTISKAKGQPREPQVYTLPPSRDELTKNQVSLTCLVKGFYPSDIAVMWLSNGQPENNYKTTPPVLDSDGSFFLYSKLTVDKSRWQQGNVFSCMVGHEALHNHYTQKSLSLSPGK
notes: as for B5
Turning to B6, the binding result with Protein G [4] is “no binding”.

B7: Fc S426M/M428G/H433D/N434A (other)
chain: DKTHTCPPCPAPELLGGPSVFLFPPKPKDTLMISRTPEVTCVVVDVSHEDPEVKFNWYVDGVEVHNAKTKPREEQYNSTYRVVSVLTVLHQDWLNGKEYKCKVSNKALPAPIEKTISKAKGQPREPQVYTLPPSRDELTKNQVSLTCLVKGFYPSDIAVEWESNGQPENNYKTTPPVLDSDGSFFLYSKLTVDKSRWQQGNVFSCMVGHEALDAHYTQKSLSLSPGK
notes: as for B5
On to B7, for which the binding result with Protein G [5] was “no binding”.

Broadly, the Kd is a measure of binding affinity in units of concentration.
